{"source": "paper doi:10.1101/2025.06.01.657267", "about": "“IFITM1 and IFITM3 cooperate to restrict virus entry in endolysosomes” (bioRxiv, 2025)", "binders": {"B1": {"name": "endogenous IFITM1 (natural protein, UniProt P13164 1-125, looked up)", "chain": "MHKEEHEVAVLGPPPSTILPRSTVINIHSETSVPDHVVWSLFNTLFLNWCCLGFIAFAYSVKSRDRKMVGDVTGAQAYASTAKCLNIWALILGILMTIGFILLLVFGSVTVYHIMLQIIQEKRGY", "notes": "Interferon-induced transmembrane protein 1 (IFITM1), human, endogenous"}}, "target": "T1, FLAG-IFITM3 G95L (human, UniProt Q01628 1-133, G95L)", "T1 construct": "Interferon-induced transmembrane protein 3 (IFITM3), human, with G95L in the GxxxG motif of the CD225 domain; also called pQCXIP-FLAG-IFITM3 G95L; source: HEK293T, stably expressing pQCXIP-FLAG-IFITM3 G95L, in lysate; HEK293T, transiently transfected, in fixed cells", "T1 sequence (Q01628 whole entry G95L, the tested form may be a part)": "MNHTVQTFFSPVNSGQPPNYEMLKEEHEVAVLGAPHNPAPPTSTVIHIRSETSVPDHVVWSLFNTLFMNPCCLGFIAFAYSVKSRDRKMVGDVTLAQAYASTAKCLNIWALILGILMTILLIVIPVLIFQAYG", "test": "affinity purification with mass spectrometry; anti-FLAG (M2) immunoprecipitation from whole cell lysates (1% Triton X-100, 150 mM NaCl) of HEK293T stably expressing FLAG-IFITM3 WT, G95L or Empty Vector; TMT labelling, duplicate MS runs", "conditions": "partners not purified"}
{"binder": "B1", "values": [{"measurement": "fold more IFITM1 pulled down by IFITM3 WT than by IFITM3 G95L", "result": "~9", "unit": "fold"}]}
